# Reference: paper PMC12554172, “Systematic analysis of the RGS2 degron reveals characteristics of substrate recognition by the F-box protein FBXO44” (The Journal of Biological Chemistry, 2025)
# B1: FLAG-tagged FBXO44 FBA domain (FBXO44^FBA) (domain or fragment)
# chain: FYFLRSLHRNLLHNPCAEEGFEFWSLDVNGGDEWKVEDLSRDQRKEFPNDQVKKYFVTSYYTCLKSQVVDLKAEGYWEELMDTTRPDIEVKDWFAARPDCGSKYQLCVQLLSSAHAPLGTFQPDPATIQQKSDAKWREVSHTFSNYPPGVRYIWFQHGGVDTHYWAGWYGPRVTNSSITIGP
# Molecular target: RGS2^5–16 peptide (RGS2 degron, Met^5–Met^16)
# Experiment: SPR; Biacore X100; RGS2^5–16 peptide amine-coupled to a CM5 chip (2498 RU), blank reference cell; FBXO44^FBA as analyte, 0.29 to 75 μM, contact time 60 s, regeneration 50 mM NaOH; RU at equilibrium, nonlinear fit of saturation binding; SEC/SPR buffer 20 mM Tris–HCl pH 7.2, 200 mM NaCl
binder,measurement,value
B1,Kd,2100 nM
